Measurements taken from US20030055219A1 (MYRIAD GENETICS, published 2003).
Each block holds one binder with its values, some of them ahead of it.

Tests used:
[1] = target: T1, C-NAP1 amino acids 1000-1300 (two-hybrid bait, fused to the Gal4 DNA binding domain) (yeast, UniProt P04386 1-147; Q9BV73 1000-1300); assay: yeast two-hybrid, bait C-NAP1 AA 1000-1300, prey AA 184-246
T1 construct: range 1-147;range 1000-1300; Bait was expressed in yeast as a C-terminal fusion to Gal4 DBD 1-147 from vector pGBTQ
Excerpt: (§1) A total human brain (person) cDNA library cloned into the yeast expression vector pACT2 was purchased from Clontech (human brain […] cDNA, cat. #HL4004AH), transformed into the yeast strain J692 (genotype of this strain: Mat α, ade2, his3, leu2, trp1, URA3::GAL1-lacZ LYS2::GAL1-HIS3 gal4del ga18Odel cyhR2), and selected for the ability to drive leucine synthesis. In these yeast cells, each cDNA is expressed as a fusion protein with the transcription activation domain of the transcription factor Gal4 (amino acids 768 to 881) and a 9 amino acid hemagglutinin epitope tag. J693 cells (Mat a type) expressing the bait were then mated with J692 cells […] expressing proteins from the brain library. The resulting diploid yeast cells expressing proteins interacting with the bait protein were selected for the ability to synthesize tryptophan, leucine, histidine, and β-galactosidase. DNA was prepared from each clone, transformed by electroporation into E. coli strain KC8 (Clontech KC8 electrocompetent cells, cat. #C2023-1), and the cells were selected on ampicillin-containing plates in the absence of either tryptophane (selection for the bait plasmid) or leucine (selection for the brain library plasmid). DNA for both plasmids was prepared and sequenced by di-deoxynucleotide chain termination method. […]

[2] = target: T2, C-NAP1 amino acids 250-550 (two-hybrid bait, fused to the Gal4 DNA binding domain) (yeast, UniProt P04386 1-147; Q9BV73 250-550); assay: yeast two-hybrid, bait C-NAP1 AA 250-550, prey AA 1314-1575
T2 construct: range 1-147;range 250-550; Bait was expressed in yeast as a C-terminal fusion to Gal4 DBD 1-147 from vector pGBTQ
Excerpt: as §1

[3] = target: T1, C-NAP1 amino acids 1000-1300 …; assay: yeast two-hybrid, C-NAP1 fragment as Gal4 DBD bait, human brain library prey
Excerpt: In these yeast cells, the bait is produced as a C-terminal fusion protein with the DNA binding domain of the transcription factor Gal4 (amino acids 1 to 147). A total human brain (person) cDNA library cloned into the yeast expression vector pACT2 was purchased from Clontech (human brain […] cDNA, cat. #HL4004AH), transformed into the yeast strain J692 (genotype of this strain: Mat α, ade2, his3, leu2, trp1, URA3::GAL1-lacZ LYS2::GAL1-HIS3 gal4del ga18Odel cyhR2), and selected for the ability to drive leucine synthesis. In these yeast cells, each cDNA is expressed as a fusion protein with the transcription activation domain of the transcription factor Gal4 (amino acids 768 to 881) and a 9 amino acid hemagglutinin epitope tag. J693 cells (Mat a type) expressing the bait were then mated with J692 cells (Mat a type) expressing proteins from the brain library. The resulting diploid yeast cells expressing proteins interacting with the bait protein were selected for the ability to synthesize tryptophan, leucine, histidine, and β-galactosidase. DNA was prepared from each clone, transformed by electroporation into E. coli strain KC8 (Clontech KC8 electrocompetent cells, cat. #C2023-1), and the cells were selected on ampicillin-containing plates in the absence of either tryptophane (selection for the bait plasmid) or leucine (selection for the brain library plasmid). […]

[4] = target: T1, C-NAP1 amino acids 1000-1300 …; assay: yeast two-hybrid, bait C-NAP1 AA 1000-1300, prey AA 7-283
Excerpt: as §1

[5] = target: T3, C-NAP1 amino acids 1-300 (two-hybrid bait, fused to the Gal4 DNA binding domain) (yeast, UniProt P04386 1-147; Q9BV73 1-300); assay: yeast two-hybrid, bait C-NAP1 AA 1-300, prey AA 2-76
T3 construct: range 1-147;range 1-300; Bait cDNA was made by PCR from brain cDNA; It was expressed in yeast as a C-terminal fusion to Gal4 DBD 1-147 from vector pGBTQ
Excerpt: as §1

- binding result [1]: binds
B1: BAP31 amino acids 184-246 (two-hybrid prey clone, fused to the Gal4 activation domain) (other, yeast;human, UniProt P04386 768-881, looked up, not shown: small tags and cut ends)
chain: ANFNQSGNIADSSLSFTFTNSSNGPNLITTQTNSQALSQPIASSNVHDNFMNNEITASKIDDGNNSKPLSPGWTDQTAYNAFGITTGMFNTTTMDDVYNYLFDDEDTPPNPKKELKADLQKLKDELASTKQKLEKAENQVLAMRKQSEGLTKEYDRLLEEHAKLQAAVDGPMDKKEE
notes: range 768-881;range 184-246; The printed GenBank number 'U5211' looks truncated

- binding result [2]: binds
B2: IQGAP2 amino acids 1314-1575 (two-hybrid prey clone, fused to the Gal4 activation domain) (other, yeast;human, UniProt P04386 768-881, looked up, not shown: small tags and cut ends)
chain: ANFNQSGNIADSSLSFTFTNSSNGPNLITTQTNSQALSQPIASSNVHDNFMNNEITASKIDDGNNSKPLSPGWTDQTAYNAFGITTGMFNTTTMDDVYNYLFDDEDTPPNPKKEQPGNTLTEILETPATAQQEVDHATDMVSRAMIDSRTPEEMKHSQSMIEDAQLPLEQKKRKIQRNLRTLEQTGHVSSENKYQDILNEIAKDIRNQRIYRKLRKAELAKLQQTLNALNKKAAFYEEQINYYDTYIKTCLDNLKRKNTRRSIKLDGKGEPKGAKRAKPVKYTAAKLHEKGVLLDIDDLQTNQFKNVTFDIIATEDVGIFDVRSKFLGVEMEKVQLNIQDLLQMQYEGVAVMKMFDKVKVNVNLLIYLLNKKFYGK

- binding result [3]: binds
B3: FIP-2 amino acids 302-577 (two-hybrid prey clone, fused to the Gal4 activation domain) (other, yeast;human, UniProt P04386 768-881, looked up, not shown: small tags and cut ends)
chain: ANFNQSGNIADSSLSFTFTNSSNGPNLITTQTNSQALSQPIASSNVHDNFMNNEITASKIDDGNNSKPLSPGWTDQTAYNAFGITTGMFNTTTMDDVYNYLFDDEDTPPNPKKELNLQVTSLFKELQEAHTKLSEAELMKKRLQEKCQALERKNSAIPSELNEKQELVYTNKKLELQVESMLSEIKMEQAKTEDEKSKLTVLQMTHNKLLQEHNNALKTIEELTRKESEKVDRAVLKELSEKLELAEKALASKQLQMDEMKQTIAKQEEDLETMTILRAQMEVYCSDFHAERAAREKIHEEKEQLALQLAVLLKENDAFEDGGRQSLMEMQSRHGARTSDSDQQAYLVQRGAEDRDWRQQRNIPIHSCPKCGEVLPDIDTLQIHVMDCII
notes: Prey came from the Clontech human brain library in pACT2; The clone 'included' these residues

- binding result [4]: binds
B4: KIAA0174 amino acids 7-283 (two-hybrid prey clone, fused to the Gal4 activation domain) (other, yeast;human, UniProt P04386 768-881, looked up, not shown: small tags and cut ends)
chain: ANFNQSGNIADSSLSFTFTNSSNGPNLITTQTNSQALSQPIASSNVHDNFMNNEITASKIDDGNNSKPLSPGWTDQTAYNAFGITTGMFNTTTMDDVYNYLFDDEDTPPNPKKEKAERLRVNLRLVINRLKLLEKKKTELAQKARKEIADYLAAGKDERARIRVEHIIREDYLVEAMEILELYCDLLLARFGLIQSMKELDSGLAESVSTLIWAAPRLQSEVAELKIVADQLCAKYSKEYGKLCRTNQIGTVNDRLMHKLSVEAPPKILVERYLIEIAKNYNVPYEPDSVVMAEAPPGVETDLIDVGFTDDVKKGGPGRGGSGGFTAPVGGPDGTVPMPMPMPMPSANTPFSYPLPKGPSDFNGLPMGTYQAFPNIHPPQIPATPPSYESV
notes: range 768-881;range 7-283

- binding result [5]: binds
B5: HSBP1 amino acids 2-76 (two-hybrid prey clone, fused to the Gal4 activation domain) (other, yeast;human, UniProt P04386 768-881, looked up, not shown: small tags and cut ends)
chain: ANFNQSGNIADSSLSFTFTNSSNGPNLITTQTNSQALSQPIASSNVHDNFMNNEITASKIDDGNNSKPLSPGWTDQTAYNAFGITTGMFNTTTMDDVYNYLFDDEDTPPNPKKEAETDPKTVQDLTSVVQTLLQQMQDKFQTMSDQIIGRIDDMSSRIDDLEKNIADLMTQAGVEELESENKIPATQKS
notes: range 768-881;range 2-76
